Several values for one entry are separate records, joined by “and”; a condition that tells them apart may be missing. Equal entries are not always repeated. Non-standard residues stand in square brackets, D forms with d. No end group written: not given here. PEG20K = 20 kDa polyethylene glycol, linked to pAF (e.g. via oxime linkage); Phe(4-Ac) = CC(=O)c1ccc(C[C@H](N)C(=O)O)cc1
T1: human RXFP1 (human, UniProt Q9HBX9 1-757)
T1 sequence (looked up): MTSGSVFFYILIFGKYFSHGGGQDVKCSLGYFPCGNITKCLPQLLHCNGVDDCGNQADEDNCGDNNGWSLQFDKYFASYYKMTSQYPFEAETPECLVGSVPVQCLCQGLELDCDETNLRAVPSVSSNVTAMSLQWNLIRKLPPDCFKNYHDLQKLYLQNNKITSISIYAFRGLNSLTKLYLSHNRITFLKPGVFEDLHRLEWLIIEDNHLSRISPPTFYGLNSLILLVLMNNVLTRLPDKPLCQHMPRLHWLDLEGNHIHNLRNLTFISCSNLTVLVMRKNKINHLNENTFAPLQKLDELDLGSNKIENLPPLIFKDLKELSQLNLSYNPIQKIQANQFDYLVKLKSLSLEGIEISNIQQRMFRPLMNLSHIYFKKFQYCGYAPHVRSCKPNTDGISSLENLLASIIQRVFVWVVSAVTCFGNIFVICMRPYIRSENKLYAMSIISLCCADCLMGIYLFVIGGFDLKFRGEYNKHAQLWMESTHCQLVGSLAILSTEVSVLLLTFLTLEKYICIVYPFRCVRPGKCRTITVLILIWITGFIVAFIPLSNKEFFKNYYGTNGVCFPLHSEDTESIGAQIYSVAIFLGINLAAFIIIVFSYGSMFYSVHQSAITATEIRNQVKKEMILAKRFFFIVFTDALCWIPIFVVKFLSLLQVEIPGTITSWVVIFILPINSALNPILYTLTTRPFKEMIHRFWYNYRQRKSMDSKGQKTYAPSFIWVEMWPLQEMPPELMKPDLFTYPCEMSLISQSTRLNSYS

B1: RLX-A-WT (human relaxin 2 with alanine at the first position of the B chain) (ligand)
chain 1: QLYSALANKCCHVGCTKRSLARFC
chain 2: ASWMEEVIKLCGRELVRAQIAICGMSTWS
modifications: not fully specified (bridges); ends and bridges not checked
B2: RLX-A-BE5-20KPEG (ligand)
chain 1: QLYSALANKCCHVGCTKRSLARFC
chain 2: ASWM[Phe(4-Ac)](PEG20K)EVIKLCGRELVRAQIAICGMSTWS
modifications: not fully specified (bridges); ends and bridges not checked
B3: RLX-A-AA5-20KPEG (ligand)
chain 1: QLYSXLANKCCHVGCTKRSLARFC
chain 2: ASWMEEVIKLCGRELVRAQIAICGMSTWS
modifications: not fully specified; para-acetylphenylalanine (pAF) at position 5 of the A chain, 20K PEGylated
B4: RLX-D-BE5-20KPEG (ligand)
chain 1: QLYSALANKCCHVGCTKRSLARFC
chain 2: DSWM[Phe(4-Ac)](PEG20K)EVIKLCGRELVRAQIAICGMSTWS
modifications: not fully specified (bridges); ends and bridges not checked
B5: RLX-D-AL2-20KPEG (ligand)
chain 1: QXYSALANKCCHVGCTKRSLARFC
chain 2: DSWMEEVIKLCGRELVRAQIAICGMSTWS
modifications: not fully specified; para-acetylphenylalanine (pAF) at position 2 of the A chain, 20K PEGylated
B6: RLX-A-AR18-20KPEG (ligand)
chain 1: QLYSALANKCCHVGCTKXSLARFC
chain 2: ASWMEEVIKLCGRELVRAQIAICGMSTWS
modifications: not fully specified; para-acetylphenylalanine (pAF) at position 18 of the A chain, 20K PEGylated
B7: RLX-A-AV13-20KPEG (ligand)
chain 1: QLYSALANKCCHXGCTKRSLARFC
chain 2: ASWMEEVIKLCGRELVRAQIAICGMSTWS
modifications: not fully specified; para-acetylphenylalanine (pAF) at position 13 of the A chain, 20K PEGylated
B8: RLX-A-BV7-20KPEG (ligand)
chain 1: QLYSALANKCCHVGCTKRSLARFC
chain 2: ASWMEE[Phe(4-Ac)](PEG20K)IKLCGRELVRAQIAICGMSTWS
modifications: not fully specified (bridges); ends and bridges not checked
B9: RLX-A-BA18-20KPEG (ligand)
chain 1: QLYSALANKCCHVGCTKRSLARFC
chain 2: ASWMEEVIKLCGRELVR[Phe(4-Ac)](PEG20K)QIAICGMSTWS
modifications: not fully specified (bridges); ends and bridges not checked
B10: RLX-A-BW28-20KPEG (ligand)
chain 1: QLYSALANKCCHVGCTKRSLARFC
chain 2: ASWMEEVIKLCGRELVRAQIAICGMST[Phe(4-Ac)](PEG20K)S
modifications: not fully specified (bridges); ends and bridges not checked

Assays:
[1] = biological target: T1, human RXFP1; experiment: cell-based or functional assay
[2] = biological target: T1, human RXFP1; experiment: cell-based or functional assay; remark: listed apart in the source

| Binder | Functional Assay Raw EC50 Values [ng/mL]; cAMP increase in THP-1 cells, 11/4/2010 [1] [ng/mL] | Functional Assay Raw EC50 Values [ng/mL]; cAMP increase in THP-1 cells, 11/5/2010 [1] | In vitro Activity Fold Loss [2] [fold] |
| --- | --- | --- | --- |
| B1 | 3.6 | 3.3 ng/mL and 2.6 ng/mL | – |
| B2 | – | 45 ng/mL | 17 |
| B3 | – | 41 ng/mL | 12 |
| B4 | – | 58 ng/mL | 22 |
| B5 | – | 43 ng/mL | 17 |
| B6 | – | 68 ng/mL | 21 |
| B7 | – | 56 ng/mL | 17 |
| B8 | 54 | – | 15 |
| B9 | 172 | – | 48 |
| B10 | 172 | – | 48 |
